The results in this text go back to patent publication US20030092066A1, “Purified Stat proteins and methods of purifying thereof” (published 2003).

A value given as a limit tells only on which side of the number the result lay.

The target in series [1] is nonphosphorylated human Stat1α (human) (UniProt P42224). Nature of the series: cell-based or functional assay.
Series [2] deals with tyrosine-phosphorylated Stat1tc, truncated Stat1 (132-713) (human) (UniProt P42224). Put plainly: cell-based or functional assay.
Series [3] concerns the target tyrosine-phosphorylated human Stat1α (human) (UniProt P42224). Put plainly: cell-based or functional assay.
Series [4] concerns the molecule itself. Put plainly: dimerization in solution, method not given.
Series [5] addresses T1, Stat1tc (Stat1 132-713, Tyr701-phosphorylated, NEM-alkylated) (Homo sapiens, UniProt P42224 SEQ:1-582).
T1 chain: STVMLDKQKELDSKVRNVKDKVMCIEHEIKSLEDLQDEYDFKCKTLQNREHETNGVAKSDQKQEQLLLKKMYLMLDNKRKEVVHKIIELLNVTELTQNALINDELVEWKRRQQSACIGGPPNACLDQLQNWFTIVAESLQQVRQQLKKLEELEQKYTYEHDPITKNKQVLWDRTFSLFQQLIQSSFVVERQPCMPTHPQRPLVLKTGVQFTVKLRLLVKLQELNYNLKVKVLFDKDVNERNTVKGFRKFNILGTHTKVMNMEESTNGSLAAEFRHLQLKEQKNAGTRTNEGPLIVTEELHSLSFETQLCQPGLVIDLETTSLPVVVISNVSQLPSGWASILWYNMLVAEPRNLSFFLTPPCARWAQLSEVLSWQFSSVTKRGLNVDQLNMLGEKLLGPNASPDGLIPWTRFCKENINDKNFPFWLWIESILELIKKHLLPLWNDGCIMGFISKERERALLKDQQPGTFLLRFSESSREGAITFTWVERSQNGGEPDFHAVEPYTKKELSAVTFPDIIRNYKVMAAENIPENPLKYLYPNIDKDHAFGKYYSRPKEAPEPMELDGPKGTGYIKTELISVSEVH
Put plainly: EMSA; dimer and two-dimer complexes both displaced in <1 min; no stabilisation (lacks residues 1-131). Particulars: tags: none; E. coli; initiator Met absent; phosphorylated in vitro by EGF-receptor kinase; chain copies: 2 (stated, homodimer); label: 32P (Klenow fill-in); protruding 5'-TCC, filled in; two parallel sites. The procedure: FIG. 6A. Comparison of the dissociation rates of complexes containing DNA fragments with two consecutive binding sites (2×osWT, 10 bp apart) and Stat1α (right) or Stat1tc (left). 0.5×10⁻⁹ M dimer was prebound with 0.7×10⁻⁹ M radiolabelled DNA for 5 min at room temperature (lanes 1 and 8). After the addition of a 100-fold molar excess of unlabelled DNA at time point zero the reaction was further incubated for the times indicated before aliquots were loaded on a running polyacrylamide gel. At time zero two differently migrating complexes are visible, denoted “(2×(Dimer))” and “Dimer”. Unbound (free) DNA runs at the bottom of the gel.
Dissociation rate determination. Under the reaction conditions described above, each oligonucleotide (at 2×10⁻⁹ M or otherwise stated) was mixed with 0.55×10⁻⁹ M dimer of purified phosphorylated Stat1 protein. The reaction volume was scaled up to 100 μl. The reaction was incubated for 5-15 min at room temperature and for time zero, an aliquot (10 μl) was removed and loaded directly onto a pre-run polyacrylamide gel (see above). […] Gels were dried, exposed to X-ray film and labelled protein/DNA complexes and unbound labelled DNA were quantitated as described above. The half life was determined from a semi-log plot of the numerical data (shifted radioactivity over shifted radioactivity at time zero versus time). […]

On to “EGF-receptor from human carcinoma A431 cells (from UniProt P00533 25-1210)”, for which the percentage of Stat protein that was phosphorylated in series [1] was under 75%.

Take “tyrosine-phosphorylated Stat1tc, truncated Stat1 (132-713) (from UniProt P42224 132-713)”: the displacement of dimeric and [2×(dimeric)] complexes on tandem DNA sites by excess unlabelled oligonucleotide in series [2] was under 1 min.

Consider “tyrosine-phosphorylated human Stat1α (from UniProt P42224 1-750)”, for which the displacement of the [2×(dimeric)] complex on tandem DNA sites by excess unlabelled oligonucleotide in series [3] was over 30 min.

B1: amino terminal domain of Stat1 (amino terminal 131 amino acids) (other)
chain: MSQWYELQQLDSKFLEQVHQLYDDSFPMEIRQYLAQWLEKQDWEHAANDVSFATIRFHDLLSQLDDQYSRFSLENNFLLQHNIRKSKRNLQDNFQEDPIQMSMIIYSCLKEERKILENAQRFNQAQSGNIQ
notes: also called 16 kDa fragment; N-terminal fragment
Turning to B1, the binding result in series [4] is on record as “binds”.

B2: 2xcfosWT tandem, 10 bp spacing (dsDNA)
DNA 1: AGTCAGTTCCCGTCAATGCATCAGGTTCCCGTCAATGCAT
DNA 2: ATGCATTGACGGGAACCTGATGCATTGACGGGAACTGACT
As for B2, in series [5], the binding result is recorded as “binds”.
